# Patent US20240092867A1 (UNIVERSITY OF CHICAGO, published 2024)
# T1: vascular endothelial growth factor (VEGF)-A121 (human, UniProt P15692-9 27-147)
# T1 construct: mature; Purchased in mature form, not glycosylated
# T1 sequence (looked up): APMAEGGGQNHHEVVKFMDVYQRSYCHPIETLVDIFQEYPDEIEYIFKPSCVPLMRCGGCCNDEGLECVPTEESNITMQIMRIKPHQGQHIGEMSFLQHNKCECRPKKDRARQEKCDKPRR
# T2: placental growth factor (PlGF)-1 (human, UniProt P49763-2 19-149)
# T2 construct: mature; Purchased in mature form
# T2 sequence (looked up): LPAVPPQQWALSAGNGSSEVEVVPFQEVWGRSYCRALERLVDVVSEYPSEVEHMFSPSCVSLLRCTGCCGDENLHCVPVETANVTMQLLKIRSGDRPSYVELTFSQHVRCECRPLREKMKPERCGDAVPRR
# T3: placental growth factor (PlGF)-2 (human, UniProt P49763-3 19-170)
# T3 construct: mature; Purchased in mature form
# T3 sequence (looked up): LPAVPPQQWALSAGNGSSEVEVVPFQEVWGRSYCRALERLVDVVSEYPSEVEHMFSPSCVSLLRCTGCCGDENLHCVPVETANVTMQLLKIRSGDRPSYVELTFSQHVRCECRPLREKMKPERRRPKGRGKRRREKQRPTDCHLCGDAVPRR
# T4: recombinant human syndecan-1 (human, UniProt P18827 23-254, limits assumed)
# T4 construct: Histidine tag of unstated position and length
# T4 sequence (looked up): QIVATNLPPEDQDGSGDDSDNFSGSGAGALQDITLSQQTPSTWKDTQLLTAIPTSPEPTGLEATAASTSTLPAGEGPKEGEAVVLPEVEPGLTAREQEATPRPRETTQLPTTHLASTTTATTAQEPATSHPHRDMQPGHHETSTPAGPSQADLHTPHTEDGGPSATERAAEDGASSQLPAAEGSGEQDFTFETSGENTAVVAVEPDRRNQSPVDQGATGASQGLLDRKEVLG
# T5: recombinant human syndecan-4 (human, UniProt P31431 19-145, limits assumed)
# T5 construct: Histidine tag of unstated position and length
# T5 sequence (looked up): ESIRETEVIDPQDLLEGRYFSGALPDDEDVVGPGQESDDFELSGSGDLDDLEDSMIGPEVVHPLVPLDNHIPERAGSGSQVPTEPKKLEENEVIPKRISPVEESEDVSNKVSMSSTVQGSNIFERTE
# Tests used:
# [1] = target: T6, platelet-derived growth factor (PDGF)-BB (human, UniProt P01127 82-190); experiment: ELISA; peptide coated (10 µg/mL, legend paragraph 53), 1 µg/mL PDGF-BB in solution, BSA-coated wells as control [panel E]
# T6 construct: mature; Purchased in mature form
# T6 sequence (P01127 82-190): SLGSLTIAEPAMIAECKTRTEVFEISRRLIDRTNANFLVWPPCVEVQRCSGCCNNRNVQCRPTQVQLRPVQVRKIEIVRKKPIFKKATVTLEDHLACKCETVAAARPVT
# Description: (§1) (A) The location of laminin-derived peptides in the LG domain of laminin α3, α4, and α5 chains. (B-F) Affinity of heparin and GFs against chemically synthesized peptides derived from the LG domain of laminin α3, α4, and α5 chains. ELISA plates were coated with 10 μg/mL laminin peptide and further incubated with (B) biotinylated heparin, (C) VEGF-A165 and VEGF-A121, (D) PlGF-2 and PlGF-1, (E) PDGF-BB, or (F) FGF-2. Concentrations were 1 μg/mL for GFs and 10 μg/mL for heparin. Bound heparin was detected with streptavidin, and bound GFs with a specific antibody for each GF (n=4, mean±SEM). Statistical analyses were done using the Mann-Whitney U test by comparing the signals obtained from the laminin peptide- and the BSA-coated wells. *p<0.05, **p<0.01.
# (§2) ELISA tests were performed as described above. […] 1 μg/mL of BSA served as non-binding protein control. After blocking with 2% BSA PBS-0.05% Tween 20 (PBS-T) solution, 1 μg/mL of the recombinant human proteins (VEGF-A121, VEGF-A165, PlGF-1, PlGF-2, PDGF-BB or FGF-2) or 10 μg/mL of biotinylated heparin (Sigma-Aldrich) were added. Bound GF was detected with biotinylated antibodies for human VEGF, PlGF, PDGF-BB, or FGF-2 (R&D Systems). The antibodies were detected by streptavidin-HRP (R&D Systems).
# [2] = target: T1, vascular endothelial growth factor …; experiment: ELISA, peptide coated
# Description: as §1, §2
# [3] = target: T2, placental growth factor (PlGF)-1; experiment: ELISA, peptide coated
# Description: as §1, §2
# [4] = target: T3, placental growth factor (PlGF)-2; experiment: ELISA; peptide coated (10 µg/mL, legend paragraph 53), 1 µg/mL PlGF-2 in solution, BSA-coated wells as control [panel D]
# Description: as §1, §2
# [5] = target: T7, vascular endothelial growth factor (VEGF)-A165 (human, UniProt P15692-4 27-191); experiment: ELISA, peptide coated, GF 1 µg/mL
# T7 construct: mature; Purchased in mature form, not glycosylated
# Description: as §1, §2
# [6] = target: T8, fibroblast growth factor (FGF)-2 (human, UniProt P09038 143-288); experiment: ELISA, peptide coated, GF 1 µg/mL
# T8 construct: mature; Purchased in mature form
# T8 sequence (P09038 143-288): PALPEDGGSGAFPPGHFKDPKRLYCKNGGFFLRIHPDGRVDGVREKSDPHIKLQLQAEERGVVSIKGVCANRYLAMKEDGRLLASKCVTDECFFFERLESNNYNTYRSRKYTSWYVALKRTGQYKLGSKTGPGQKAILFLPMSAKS
# Description: as §1, §2
# [7] = target: T7, vascular endothelial growth factor …; experiment: cell-based or functional assay
# [8] = target: T6, platelet-derived growth factor (PDGF)-BB; experiment: cell-based or functional assay
# [9] = target: T9, recombinant human syndecan-2 (human, UniProt P34741 19-144, limits assumed); experiment: ELISA, peptide coated, syndecan 1 µg/mL, anti-His detection
# T9 construct: Histidine tag of unstated position and length
# T9 sequence (P34741 19-144 limits assumed): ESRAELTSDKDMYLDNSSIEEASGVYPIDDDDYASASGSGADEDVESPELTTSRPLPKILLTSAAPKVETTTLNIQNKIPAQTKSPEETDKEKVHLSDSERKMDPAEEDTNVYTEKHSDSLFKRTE
# Description: (§3) ELISA tests were performed as described above. In brief, ELISA plates were coated with 1 μg/mL laminin peptide (sequences are described in Table 1, chemically synthesized by Genscript) in PBS for 2 hrs at 37° C. 1 μg/mL of BSA served as non-binding protein control. After blocking with 2% BSA PBS-T solution, 1 μg/mL of the recombinant human syndecan-1, syndecan-2, syndecan-3, syndecan-4 (all syndecan proteins are histidine-tagged; SinoBiological) were added. Bound GF was detected with anti-histidine tag antibody (1:1000 dilution, BioLegend).
# [10] = target: T4, recombinant human syndecan-1; experiment: as above
# Description: as §3
# [11] = target: T5, recombinant human syndecan-4; experiment: as above
# Description: as §3
# [12] = target: T8, fibroblast growth factor (FGF)-2; experiment: ELISA; peptide coated (10 µg/mL, legend paragraph 53), 1 µg/mL FGF-2 in solution, BSA-coated wells as control [panel F]
# Description: as §1, §2
# [13] = target: T6, platelet-derived growth factor (PDGF)-BB; experiment: ELISA; peptide coated (10 µg/mL, legend paragraph 53), GF in solution, BSA-coated wells as control [panel E]
# Description: as §1, §2
# [14] = target: T3, placental growth factor (PlGF)-2; experiment: ELISA, peptide coated, GF 1 µg/mL
# Description: as §1, §2
# bovine type I collagen = target: T10, bovine type I collagen (bovine, UniProt P02453 178-1191; P02465 89-1102); experiment: ELISA, collagen I coated, 0.01-30 nM binder
# T10 construct: PureCol, Advanced BioMatrix; coated on the plate; also called collagen I; PureCol
# T10 sequence (P02453 178-1191, chain 1 of 2): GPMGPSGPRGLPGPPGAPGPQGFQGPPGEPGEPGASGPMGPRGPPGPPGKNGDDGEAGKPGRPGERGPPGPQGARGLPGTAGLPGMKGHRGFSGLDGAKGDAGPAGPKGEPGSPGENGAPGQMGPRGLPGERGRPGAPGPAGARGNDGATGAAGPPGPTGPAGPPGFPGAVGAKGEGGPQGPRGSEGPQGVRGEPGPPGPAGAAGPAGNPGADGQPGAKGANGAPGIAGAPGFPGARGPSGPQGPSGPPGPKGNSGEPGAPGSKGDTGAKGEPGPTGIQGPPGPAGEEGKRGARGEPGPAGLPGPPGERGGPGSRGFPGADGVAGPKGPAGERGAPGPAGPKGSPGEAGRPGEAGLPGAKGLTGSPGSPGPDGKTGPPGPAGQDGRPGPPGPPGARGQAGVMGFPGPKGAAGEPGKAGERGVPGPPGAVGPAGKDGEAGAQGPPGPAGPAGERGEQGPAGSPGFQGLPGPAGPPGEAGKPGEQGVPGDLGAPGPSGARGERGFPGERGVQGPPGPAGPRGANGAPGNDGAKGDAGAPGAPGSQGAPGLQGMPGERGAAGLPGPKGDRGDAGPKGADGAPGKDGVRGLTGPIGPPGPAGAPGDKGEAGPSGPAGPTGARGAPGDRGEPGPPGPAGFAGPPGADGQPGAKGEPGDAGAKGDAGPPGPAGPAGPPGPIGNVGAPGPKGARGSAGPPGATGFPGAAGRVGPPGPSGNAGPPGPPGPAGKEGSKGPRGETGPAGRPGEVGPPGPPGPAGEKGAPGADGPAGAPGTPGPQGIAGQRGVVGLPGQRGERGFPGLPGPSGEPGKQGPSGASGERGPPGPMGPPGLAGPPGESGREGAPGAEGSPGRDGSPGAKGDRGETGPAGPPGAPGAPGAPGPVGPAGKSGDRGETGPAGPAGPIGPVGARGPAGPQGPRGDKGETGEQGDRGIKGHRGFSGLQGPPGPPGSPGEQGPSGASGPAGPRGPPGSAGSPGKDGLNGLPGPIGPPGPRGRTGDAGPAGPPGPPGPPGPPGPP
# T10 sequence (P02465 89-1102, chain 2 of 2): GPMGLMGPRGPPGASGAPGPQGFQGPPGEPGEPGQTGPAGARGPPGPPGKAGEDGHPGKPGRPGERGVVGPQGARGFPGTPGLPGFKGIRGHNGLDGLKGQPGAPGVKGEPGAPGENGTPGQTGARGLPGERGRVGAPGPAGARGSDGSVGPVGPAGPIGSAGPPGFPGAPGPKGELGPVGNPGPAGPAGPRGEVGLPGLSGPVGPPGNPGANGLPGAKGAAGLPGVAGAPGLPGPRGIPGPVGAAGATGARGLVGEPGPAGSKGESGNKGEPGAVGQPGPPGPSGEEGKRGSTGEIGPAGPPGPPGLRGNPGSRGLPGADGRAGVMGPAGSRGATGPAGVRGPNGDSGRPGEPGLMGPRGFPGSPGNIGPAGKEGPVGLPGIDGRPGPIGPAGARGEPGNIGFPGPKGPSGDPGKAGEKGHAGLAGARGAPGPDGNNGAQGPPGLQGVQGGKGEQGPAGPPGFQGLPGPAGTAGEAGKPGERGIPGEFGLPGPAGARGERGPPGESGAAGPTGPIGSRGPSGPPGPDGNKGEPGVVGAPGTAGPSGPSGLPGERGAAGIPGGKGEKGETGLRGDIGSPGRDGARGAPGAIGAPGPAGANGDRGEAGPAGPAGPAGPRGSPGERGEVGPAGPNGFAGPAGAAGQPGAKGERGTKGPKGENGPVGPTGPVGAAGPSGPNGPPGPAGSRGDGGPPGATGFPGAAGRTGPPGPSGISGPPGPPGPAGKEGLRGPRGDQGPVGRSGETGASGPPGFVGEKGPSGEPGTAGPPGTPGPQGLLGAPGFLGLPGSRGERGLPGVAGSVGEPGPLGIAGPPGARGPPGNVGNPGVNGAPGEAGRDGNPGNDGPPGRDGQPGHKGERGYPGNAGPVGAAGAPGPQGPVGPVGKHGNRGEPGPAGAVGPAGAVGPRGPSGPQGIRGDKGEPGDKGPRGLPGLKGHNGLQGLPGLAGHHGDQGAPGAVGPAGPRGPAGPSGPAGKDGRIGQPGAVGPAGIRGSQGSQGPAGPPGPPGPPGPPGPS
# Description: ELISA plates (NUNC MaxiSorp, ThermoFisher Scientific) were coated overnight with 10 μg/mL of bovine type I collagen (PureCol, Advanced BioMatrix, San Diego CA, USA) at room temperature. The plate was further blocked using 2% bovine serum albumine (BSA) for 2 h at room temperature. […] The plate was washed thrice in PBST, and an horseradish peroxidase-conjugated anti-human Fab antibody (Jackson ImmunoResearch,) was used to detect bound FabCol variants. […] Absorbance at 450 nm was read using […], and corrected using the absorbance at 570 nm. Curve fits and dissociation constant KD were computed using Prism (GraphPad Software Inc., USA).
# recombinant human BMP-2 = target: T11, recombinant human BMP-2 (human, UniProt P12643 283-396); experiment: ELISA, rhBMP-2 coated 50 nM, binder 50 nM
# T11 construct: also called rhBMP-2
# T11 sequence (P12643 283-396 limits assumed): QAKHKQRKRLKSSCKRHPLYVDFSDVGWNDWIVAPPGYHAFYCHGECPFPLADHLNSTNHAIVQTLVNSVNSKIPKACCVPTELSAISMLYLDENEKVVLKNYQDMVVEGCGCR
# Description: ELISA plates (NUNC MaxiSorp) were coated with 50 nM of recombinant human BMP-2 (CHO produced, R&D Systems, Minneapolis MN, USA) overnight at room temperature.
# [15] = target: T6, platelet-derived growth factor (PDGF)-BB; experiment: ELISA, peptide coated, GF 1 µg/mL
# Description: as §1, §2
# [16] = target: T1, vascular endothelial growth factor …; experiment: ELISA; peptides and vWF forms coated at 50 nM, VEGF-A in solution, detected with anti-VEGF-A antibody [panel D]
# Description: (A) Diagram of exon sequence of VEGF-A showing inclusion (+) or exclusion (−) of heparin binding domain exons for the different VEGF-A isoforms. […] Bound VEGF-A was detected using a specific antibody for VEGF-A (n=4, mean±SD). Statistical comparisons were done using ANOVA with Tukey's test compared with BSA control. **p<0.01.
# ELISA was performed as previously reported1. […] After blocking with 2% BSA solution containing PBS-T, 1 μg/mL of recombinant human VEGF-A121 (PeproTech), recombinant human VEGF-A145 (R & D Systems), or recombinant human VEGF-A165 (PeproTech) was added. Bound VEGF-A was detected with 1 μg/mL of mouse anti-human VEGF-A antibody (clone: 26503, R & D systems). After 60 min of incubation, horseradish peroxidase (HRP) conjugated goat anti-mouse antibody (1:2000 dilution, Dako) was added and incubated for another 60 min. Color development and the absorbance measurement were done as described above.
Binder,binding result [2],binding result [3],binding result [5],binding result [6],binding result [9],binding result [10],binding result [11],binding result [14],also measured
PPFLMLLKGSTRFNKTKTFR (Chemically synthesized (Genscript)) [laminin α3 2932-2951 peptide (Linker)],no binding (tested: 1 µg/mL),no binding (tested: 1 µg/mL),binds,binds,,,,,binding result [1]: binds; binding result [4]: binds
NQEQVSPLRQRSRPGRWHKVSVRWEKNR [α2PI1-8-α5 3417-3436],,,,,,,,,cumulative release of GF from peptide-functionalized fibrin matrix after 5 days [7]: 31%; cumulative release of GF from peptide-functionalized fibrin matrix after 5 days [8]: 47%
TPGLGPRGLQATARKASRRSRQPARHPACML (Chemically synthesized (Genscript)) [laminin α5 3300-3330 peptide (Linker)],no binding (tested: 1 µg/mL),no binding (tested: 1 µg/mL),binds,,binds,binds,binds,binds,binding result [12]: binds; binding result [13]: no binding (tested: 1 µg/mL PDGF-BB (single concentration))
"FabCol-p(FgHBD) recombinant fusion protein (Fab, Three repeats of FgHBD at the C-termini of both Fab chains) light: EIVLTQSPGTLSLSPGERATLSCRASQSVSSSYLAWYQQKPGQAPRLLIYGASSRATGIPDRFSGSGSGTDFTLTISRLEPEDFAVYYCQQAIGFPQTFGQGTKVEIKRTVAAPSVFIFPPSDEQLKSGTASVVCLLNNFYPREAKVQWKVDNALQSGNSQESVTEQDSKDSTYSLSSTLTLSKADYEKHKVYACEVTHQGLSSPVTKSFNRGECGAGGGSGGGHRPLDKKREEAPSLRPAPPPISGGGYRARPAKAAATQKKVERKAPDAGGGSGGGSGGGHRPLDKKREEAPSLRPAPPPISGGGYRARPAKAAATQKKVERKAPDAGGGSGGGSGGGHRPLDKKREEAPSLRPAPPPISGGGYRARPAKAAATQKKVERKAPDAGGGT heavy: not shown",,,,,,,,,Kd (bovine type I collagen): ~1.7 nM; binding result (recombinant human BMP-2): binds
RQRSRPGRWHKVSVRWEKNR (Chemically synthesized (Genscript)) [laminin α5 3417-3436 peptide (LG4)],no binding (tested: 1 µg/mL),no binding (tested: 1 µg/mL),binds,binds,binds,binds,binds,binds,binding result [15]: binds
NQEQVSPLRLVFALGTDGKKLRIKSKEKCNDGK [α2PI1-8-α3 3043-3067],,,,,,,,,cumulative release of GF from peptide-functionalized fibrin matrix after 5 days [7]: 25%; cumulative release of GF from peptide-functionalized fibrin matrix after 5 days [8]: 45%
"FabCol-FgHBD conjugates (Fab, chemically conjugated to FabCol with sulfo-SMCC crosslinker; multiple copies per FabCol (shift of about 35 kDa), Chemical conjugate) light: EIVLTQSPGTLSLSPGERATLSCRASQSVSSSYLAWYQQKPGQAPRLLIYGASSRATGIPDRFSGSGSGTDFTLTISRLEPEDFAVYYCQQAIGFPQTFGQGTKVEIKRTVAAPSVFIFPPSDEQLKSGTASVVCLLNNFYPREAKVQWKVDNALQSGNSQESVTEQDSKDSTYSLSSTLTLSKADYEKHKVYACEVTHQGLSSPVTKSFNRGEC heavy: not shown peptide: GCGGSLRPAPPPISGGGYRARPAKAAATQKKVERKAPDA",,,,,,,,,Kd (bovine type I collagen): ~2.8 nM
"YIGLKDRKRPSELRRIASQVKYAC (also the peptide coupled into the PEG matrix; also called vWF HBD-Cys; vWF A1 HBD peptide) [vWF A1 HBD (24 residues, C-terminal Cys)]",,,,,,,,,binding result [16]: no binding (tested: 1 µg/mL VEGF-A121 (single concentration))
PLFLLHKKGKNLSKPKASQNKKGGKSK (Chemically synthesized (Genscript)) [laminin α4 1408-1434 peptide (Linker)],no binding (tested: 1 µg/mL),no binding (tested: 1 µg/mL),binds,binds,binds,binds,binds,binds,binding result [15]: binds
